Two molecules from PMC11309785, “Vaccine priming of rare HIV broadly neutralizing antibody precursors in non-human primates” (Science (New York, N.Y.), 2024) can be followed below.

The experiment concerns the target T1, N332-GT5 trimer, C-terminal His-tagged (captured ligand of the SPR) (HIV-1 isolate BG505 (N332-GT5 …, stabilised)).
T1 construct: HIV-1 envelope (Env) of isolate BG505, gp120 part of the germline-targeting trimer N332-GT5, co-expressed with furin; S18, coordinates in PDB 8T4K; HIV-1 envelope (Env) of isolate BG505, gp41 ectodomain part of the trimer N332-GT5; MD65 = MD39 stabilising mutations plus V505T, V513A, V518S, L520D; also called N332-GT5 WT; source: 293F cells, co-transfected with furin, purified (HIS-TRAP, SEC); …
In words: SPR; ProteOn XPR36, HC30M XanTec chip; His-tagged trimer (300 to 400 RU, 1 ug/mL) captured by immobilised rabbit anti-His-tag pAb, Fab flowed as analyte at 30 ul/min for 3 min, 5 min dissociation; 1x HBS-EP+ pH 7.4 with BSA 1 mg/ml; equilibrium or kinetic (Langmuir) fits; highest concentration 2x10^-5 M, approximate upper affinity limit 1.6x10^-11 M. As to conditions: both partners purified. For orientation: SPR reads the build-up and loss of mass on a sensor chip optically.

B1: RM_N332_36 Fab (Fab, V domains shown)
VH: QVTLKESGPALVKPTQTLTLTCTFSGFSLSTNYMGVDWIRQPPGKALEWLARIYWNDDKYYSTSLKSRLTISKDTSKNQVVLTMSNMDPVDTATYYCARVKLSVWGVLQFFEWSDYGLDSWGQGVVVTVSS
VL: SYVLTQPPSVSVSPGQTARITCGADNIGSQSVHWYQQKSPQAPVLVISADTERPSGIPERFSGSNSGNTATLTISGVEAGDEADYYCQVWDSDSKYALFGGGTRLTVL
notes: human Fab heavy chain constant region from the vector pFabCW; human lambda constant region from the vector pCW-CLig-hL2; Macaque variable regions on human constant regions; The deposited model may hold the Fv only; also called BG18 type I Fab with D3-41 in alternate reading frame; source: FreeStyle 293F or ExpiCHO cells, purified (CaptureSelect CH1-XL)
Turning to B1, the affinity, expressed as Kd, was 0.038 nM. This lies in the picomolar range.

B2: RM_N332_32 Fab (Fab, V domains shown)
VH: QLQLQESGPGLVKPSETLSLTCAVSGGSISDYCWNWIRQPPGKGLEWIGYIGGSSGSTYYNPSLKGRVTISADTSENRFSLKLSSVTAADTAVYYCARSPITVFGVVIFDEYTTGNLDLWGPGTPISISS
VL: DIQMTQSPSSLSASVGDKVTITCHASQDISSWLAWYQQKPGKAPKPLIYYASSLQSGVPSRFSGSGSGTDYTLTITSLQPEDFATYYCQQYDDLPFTFGPGTKLDIK
notes: human Fab heavy chain constant region from the vector pFabCW; human kappa constant region from the vector pCW-CLig-hk; Macaque variable regions on human constant regions; The deposited model may hold the Fv only; also called BG18 type I Fab with kappa light chain; source: FreeStyle 293F or ExpiCHO cells, purified (CaptureSelect CH1-XL)
Take B2: the Kd – broadly, a measure of binding affinity in units of concentration – came out at 0.081 nM.
